For test [1], the target named is full-length beta-Catenin (Uniprot ID P35222) (Homo sapiens (Human)) (UniProt P35222). Put plainly: fluorescence polarization competition; peptide titrated against 5FAM-TCF4(10-53) bound to full-length beta-catenin. In general terms: In fluorescence polarisation assays a small probe gives low polarisation when free and higher when bound to something large.
Target sequence in this assay (P35222 whole entry, one chain of several): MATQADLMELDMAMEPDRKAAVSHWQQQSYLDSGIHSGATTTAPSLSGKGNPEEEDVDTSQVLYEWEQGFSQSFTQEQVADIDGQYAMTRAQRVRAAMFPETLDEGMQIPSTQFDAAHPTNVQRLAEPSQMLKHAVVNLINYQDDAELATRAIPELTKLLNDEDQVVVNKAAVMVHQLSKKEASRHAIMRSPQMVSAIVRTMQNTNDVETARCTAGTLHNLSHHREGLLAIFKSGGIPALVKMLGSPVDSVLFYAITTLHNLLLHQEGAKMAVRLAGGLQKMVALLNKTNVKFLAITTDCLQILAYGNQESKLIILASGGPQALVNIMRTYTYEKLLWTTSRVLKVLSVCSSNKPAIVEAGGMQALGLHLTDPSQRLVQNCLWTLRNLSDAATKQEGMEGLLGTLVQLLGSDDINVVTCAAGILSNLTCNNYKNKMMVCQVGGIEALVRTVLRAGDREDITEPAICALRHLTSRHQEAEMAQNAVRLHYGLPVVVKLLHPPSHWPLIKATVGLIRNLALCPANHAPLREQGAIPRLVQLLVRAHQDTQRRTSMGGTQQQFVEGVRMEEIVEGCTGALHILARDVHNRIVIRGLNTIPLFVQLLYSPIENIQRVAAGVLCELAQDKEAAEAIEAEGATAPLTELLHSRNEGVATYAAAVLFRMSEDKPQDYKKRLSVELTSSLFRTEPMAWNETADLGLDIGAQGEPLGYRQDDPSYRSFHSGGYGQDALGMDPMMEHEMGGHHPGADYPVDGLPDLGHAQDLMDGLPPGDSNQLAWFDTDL
The target of test [2] is B-cat-Halo (beta-catenin HaloTag NanoBRET construct expressed in HEK293 cells) (UniProt P35222). The experiment in a line: NanoBRET Abs IC50 in HEK293 cells; Bcat-Halo, competitor TCF4-Luc. (In general: BRET reads energy transfer from a luciferase to a nearby fluorophore.)
Chain of B-cat-Halo (beta-catenin HaloTag NanoBRET construct expressed in HEK293 cells) (P35222 whole entry): as the sequence (P35222 whole entry, one chain of several) above
Test [3] concerns the target full-length beta-Catenin (Uniprot ID P35222) (Homo sapiens (Human)) (UniProt P35222). The experiment in a line: fluorescence polarization competition; full-length beta-catenin, competitor 5FAM-TCF4(10-53) probe.
Target sequence in this assay (P35222 2-781 limits assumed): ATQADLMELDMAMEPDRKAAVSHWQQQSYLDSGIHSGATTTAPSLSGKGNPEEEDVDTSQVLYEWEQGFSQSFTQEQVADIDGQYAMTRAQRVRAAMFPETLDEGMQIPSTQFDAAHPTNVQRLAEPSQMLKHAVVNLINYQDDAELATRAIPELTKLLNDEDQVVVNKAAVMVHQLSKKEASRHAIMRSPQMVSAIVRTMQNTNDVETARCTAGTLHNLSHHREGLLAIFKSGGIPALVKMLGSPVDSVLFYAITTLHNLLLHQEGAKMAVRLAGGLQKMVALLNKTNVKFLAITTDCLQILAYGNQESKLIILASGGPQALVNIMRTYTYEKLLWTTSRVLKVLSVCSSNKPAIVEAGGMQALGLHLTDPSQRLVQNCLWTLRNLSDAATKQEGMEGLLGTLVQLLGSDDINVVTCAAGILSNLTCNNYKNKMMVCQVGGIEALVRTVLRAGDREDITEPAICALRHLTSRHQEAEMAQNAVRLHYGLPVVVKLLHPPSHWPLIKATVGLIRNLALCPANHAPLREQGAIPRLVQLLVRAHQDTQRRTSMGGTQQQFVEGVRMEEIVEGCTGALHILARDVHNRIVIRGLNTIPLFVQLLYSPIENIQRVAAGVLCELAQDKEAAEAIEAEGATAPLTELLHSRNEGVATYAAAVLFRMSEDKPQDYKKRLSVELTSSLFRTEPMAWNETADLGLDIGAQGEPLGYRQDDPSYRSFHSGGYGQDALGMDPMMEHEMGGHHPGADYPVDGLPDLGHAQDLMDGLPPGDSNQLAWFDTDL
For test [4] the target is unchanged. The experiment in a line: fluorescence polarization competition; competitor 5FAM-TCF4(10-53) probe on full-length beta-catenin.
Target sequence in this assay (P35222 whole entry, one chain of several): as the sequence (P35222 whole entry, one chain of several) above
Test [5] shares this target. The experiment in a line: fluorescence polarization competition; full-length beta-catenin + 5FAM-TCF4 10-53 probe.
Target sequence in this assay (P35222 2-781 limits assumed): as the sequence (P35222 2-781 limits assumed) above
The target is the same in test [6]. Put plainly: fluorescence polarization competition; full-length beta-catenin + 5FAM-TCF4(10-53) probe.
Target sequence in this assay (P35222 whole entry, one chain of several): as the sequence (P35222 whole entry, one chain of several) above
The target is the same in test [7]. The experiment in a line: fluorescence polarization competition; 10 nM full-length beta-catenin + 10 nM 5FAM-TCF4 10-53 as competitor probe.
Target sequence in this assay (P35222 2-781 limits assumed): as the sequence (P35222 2-781 limits assumed) above
The target is the same in test [8]. The experiment in a line: fluorescence polarization competition; full-length beta-catenin with 5FAM-TCF4(10-53) probe, peptide titrated.
Target sequence in this assay (P35222 whole entry, one chain of several): as the sequence (P35222 whole entry, one chain of several) above
Test [9] has the same target. The experiment in a line: cell-based or functional assay.
In test [10] the target is Bcat-Halo (UniProt P35222). Put plainly: NanoBRET Abs IC50, HEK293 cells transfected with Bcat-Halo and TCF4-Luc (competitor: TCF4-Luc); cellular assay.
Chain of Bcat-Halo (P35222 whole entry): as the sequence (P35222 whole entry, one chain of several) above
For test [11], the target named is Bcat-Halo (UniProt P35222). Put plainly: NanoBRET absolute IC50, HEK293 cells, Bcat-Halo/TCF4-Luc engagement.
Test [12] concerns the target full-length beta-Catenin (Uniprot ID P35222) (Homo sapiens (Human)) (UniProt P35222). The experiment in a line: FP competition, full-length beta-catenin, competitor probe 5FAM-TCF4 10-53.
Target sequence in this assay (P35222 2-781 limits assumed): as the sequence (P35222 2-781 limits assumed) above
In test [13] the target is Bcat-Halo (UniProt P35222). The experiment in a line: NanoBRET absolute IC50 in HEK293 cells; Bcat-Halo, competitor TCF4-Luc.
Test [14] has as its target full-length beta-Catenin (Uniprot ID P35222) (Homo sapiens (Human)) (UniProt P35222). The experiment in a line: fluorescence polarization competition; full-length beta-catenin, competitor 5FAM-TCF4 10-53.
Target sequence in this assay (P35222 whole entry, one chain of several): as the sequence (P35222 whole entry, one chain of several) above

Starred links: 1 amine or outer side, 2 acyl side, 3 side chain; linkers in the order of their positions; H or OH if unused. Positions of bridges follow the written chain, without caps; N, C: chain ends. Non-standard residues stand in square brackets, D forms with d. Primed or numbered codes have the meaning given here. No end group written: not given here. PyrS2″ = (S)-3-amino-1-((pent-4-en-1-yloxy)carbonyl)pyrrolidine-3-carboxylic acid (stapling residue), C=CCCCOC(=O)N1CC[C@@](N[*:1])(C(=O)[*:2])C1; B5(16) = 2-amino-2-(pent-4-en-1-yl)hept-6-enoic acid = 2,2-bis(4-pentenyl)glycine (stitching residue), C=CCCCC(CCCC=C)(N[*:1])C(=O)[*:2]; B5(30) = 2-amino-2-(pent-4-en-1-yl)hept-6-enoic acid (2,2-bis(4-pentenyl)glycine, stitching residue), C=CCCCC(CCCC=C)(N[*:1])C(=O)[*:2]; B5(4) = 2,2-bis(4-pentenyl)glycine = 2-amino-2-(pent-4-en-1-yl)hept-6-enoic acid (stitching residue), C=CCCCC(CCCC=C)(N[*:1])C(=O)[*:2]; B5(5) = 2,2-bis(4-pentenyl)glycine, 2-amino-2-(pent-4-en-1-yl)hept-6-enoic acid (stitching residue), C=CCCCC(CCCC=C)(N[*:1])C(=O)[*:2]; PyrS2 = (S)-3-amino-1-((pent-4-en-1-yloxy)carbonyl)pyrrolidine-3-carboxylic acid, C=CCCCOC(=O)N1CC[C@@](N[*:1])(C(=O)[*:2])C1; B5(12) = 2-amino-2-(pent-4-en-1-yl)hept-6-enoic acid (two olefin side chains), C=CCCCC(CCCC=C)(N[*:1])C(=O)[*:2]; Phe(3-COOH) = N[C@@H](Cc1cccc(C(=O)O)c1)C(=O)O; Phe(2-CF3) = N[C@@H](Cc1ccccc1C(F)(F)F)C(=O)O; Phe(2-Cl) = N[C@@H](Cc1ccccc1Cl)C(=O)O; Phe(2-Me) = Cc1ccccc1C[C@H](N)C(=O)O; Bta = N[C@@H](Cc1csc2ccccc12)C(=O)O; Lys(iPr) = CC(C)NCCCC[C@H](N)C(=O)O; αAllylPro = C=CC[C@@]1(C(=O)O)CCCN1; tBuAla = CC(C)(C)C[C@H](N)C(=O)O; 3Thi = N[C@@H](Cc1ccsc1)C(=O)O; Cha = N[C@@H](CC1CCCCC1)C(=O)O; Thr(ol) = C[C@@H](O)[C@H](N)CO; PyrS2(4) = not defined here

For orientation: IC50 means the midpoint of a concentration-inhibition curve. What is called EC50 is the midpoint of the concentration-response curve.

B1: I-1909 (peptide)
peptide: Ac-[αAllylPro]D[tBuAla][B5(12)]D[Phe(3-COOH)][Lys(iPr)]AFL[PyrS2(4)][3Thi][Bta]F-NH2
modifications: staple 1-4, 4-11; not fully specified; printed as Ac-PL3-Asp-Npg-B5-Asp-3COOHF-iPrLys-Ala-Phe-Leu-PyrS2-3Thi-BztA-Phe-NH2; reading uncertain
On to B1, for which the half-maximal inhibitory concentration (IC50) in [1] came out at 29 nM.
[αAllylPro]D[tBuAla][B5(4)]DDAAFF[PyrS2″][Phe(2-Me)][Bta]Q-NH2 (staple 1-4, 4-11) [I-1326]: the figures for the IC50 in test [2] and in test [4] were 6200 nM and 12 nM, respectively. This molecule also displayed a 50% effective concentration (EC50) in test [3] of 12 nM.
Take Ac-[αAllylPro]D[tBuAla][B5(5)]DDAAFL[PyrS2][3Thi][Bta][Thr(ol)] (staple 1-4, 4-11) [I-1302]: the IC50 in [5] was 45 nM. For the same molecule, the EC50 in [6] stood at 45 nM.
For the molecule Ac-[αAllylPro]D[Cha][B5(5)]DDAAFS[PyrS2″][Phe(2-Cl)][Bta]Q-NH2 (staple 1-4, 4-11) [I-1044], the EC50 in test [7] turned out to be 5 nM. In addition, the IC50 in test [8] amounted to 5 nM; in the test with Bcat-Halo [10], 17600 nM. Further, the DLD1 4% Abs IC50 in [9] stood at 14500 nM. Also, the DLD1 reporter assay Abs IC50 in test [9] was found to be 20000 nM.
[αAllylPro]D[tBuAla][B5(4)]D[Phe(3-COOH)]AAFF[PyrS2″][Phe(2-Cl)][Bta][Thr(ol)] (staple 1-4, 4-11) [I-1340]: the values for the half-inhibitory concentration (IC50) (in [2]; in the test with Bcat-Halo [11]; in test [12]) were 6800 nM, 6800 nM and 159 nM, respectively. The molecule further came in with an EC50 in [3] of 159 nM.

B2: I-1911 (peptide)
peptide: Ac-[αAllylPro]D[tBuAla][B5(12)]D[Phe(3-COOH)]KAFL[PyrS2(4)][3Thi][Bta]F-NH2
modifications: staple 1-4, 4-11; not fully specified; printed as Ac-PL3-Asp-Npg-B5-Asp-3COOHF-Lys-Ala-Phe-Leu-PyrS2-3Thi-BztA-Phe-NH2; reading uncertain
Consider B2, for which the IC50 in test [1] was 38 nM.
As for Ac-[αAllylPro]D[tBuAla][B5(5)]DDAAFL[PyrS2″][Phe(2-Cl)][Bta][dT]-NH2 (staple 1-4, 4-11) [I-1035], the EC50 in test [7] amounted to 21 nM. The molecule also returned a DLD1 reporter assay Abs IC50 in [9] above 20000 nM. Moreover, the IC50 with Bcat-Halo [13] worked out at 10200 nM; with Bcat-Halo [10], 10200 nM; in test [14] it was 21 nM.
For [αAllylPro]D[tBuAla][B5(4)]D[Phe(3-COOH)]AAFF[PyrS2″][Phe(2-Cl)][Bta]Q-NH2 (staple 1-4, 4-11) [I-1338], the IC50 in [2] was 3600 nM; with Bcat-Halo [11], 3600 nM; in [12] it was 10 nM. The molecule further had an EC50 in [3] of 10 nM.
Consider Ac-[αAllylPro]D[Cha][B5(5)]DDAAFN[PyrS2″][Phe(2-Cl)][Bta]S-NH2 (staple 1-4, 4-11) [I-1046], for which the EC50 in test [7] was 5 nM. The IC50 is 5 nM in [8] and 20500 nM with Bcat-Halo [10].

B3: I-1910 (peptide)
peptide: Ac-[αAllylPro]D[tBuAla][B5(12)]D[Phe(3-COOH)]HAFL[PyrS2(4)][3Thi][Bta]F-NH2
modifications: staple 1-4, 4-11; not fully specified; printed as Ac-PL3-Asp-Npg-B5-Asp-3COOHF-His-Ala-Phe-Leu-PyrS2-3Thi-BztA-Phe-NH2; reading uncertain
For B3, the IC50 in [1] is 17 nM.
On to Ac-[αAllylPro]D[tBuAla][B5(5)]DDAAFF[PyrS2][3Thi][Bta][Thr(ol)] (staple 1-4, 4-11) [I-1303], for which, in [5], the half-maximal inhibitory concentration (IC50) turned out to be 86 nM. In addition, in [6], the concentration for a half-maximal effect (EC50) was found to be 86 nM.
In the case of Ac-[αAllylPro]N[tBuAla][B5(5)]DDAAFL[PyrS2][3Thi][Bta][Thr(ol)] (staple 1-4, 4-11) [I-1304], the IC50 in test [5] came out at 31 nM. Further, the EC50 in test [6] is 31 nM.
Molecule Ac-[αAllylPro]D[tBuAla][B5(4)]D[Phe(3-COOH)]AAFF[PyrS2″][Phe(2-CF3)][Bta][Thr(ol)] (staple 1-4, 4-11) [I-1343] registered an EC50 in [3] of 150 nM. Moreover, the IC50 in [12] was 150 nM.

B4: I-1890 (peptide)
peptide: Ac-[αAllylPro]D[tBuAla][B5(5)]DRAAFN[PyrS2][3Thi][Bta]Q-NH2
modifications: staple 1-4, 4-11; not fully specified; printed as Ac-PL3-Asp-Npg-B5-Asp-Arg-Ala-Ala-Phe-Asn-PyrS2-3Thi-BztA-Gln-NH2
Take B4: the IC50 in test [1] was found to be 31 nM.
Turning to Ac-[αAllylPro]E[tBuAla][B5(5)]DDAAFN[PyrS2″][Phe(2-Cl)][Bta][dT]-NH2 (staple 1-4, 4-11) [I-1029], the concentration giving a half-maximal response (EC50) in test [7] turned out to be 823 nM. In [9], this molecule returned a DLD1 reporter assay Abs IC50 above 20000 nM. In addition, the results for the IC50 (with Bcat-Halo [13]; with Bcat-Halo [10]; in test [14]) were above 20000 nM, above 20000 nM and 823 nM, respectively.
As to [αAllylPro]D[tBuAla][B5(4)]D[Phe(3-COOH)]AAFF[PyrS2″][Phe(2-Cl)][Bta]S-NH2 (staple 1-4, 4-11) [I-1339], the IC50 in test [2] is 5200 nM; with Bcat-Halo [11], 5200 nM; in [12], 33 nM. Also, in test [3], the EC50 came to 33 nM.

B5: I-1891 (peptide)
peptide: Ac-[αAllylPro]D[tBuAla][B5(5)]DRAAFN[PyrS2][3Thi][Bta]Q-NH2
modifications: staple 1-4, 4-11; not fully specified; printed as Ac-PL3-Asp-Npg-B5-Asp-Arg-Ala-Ala-Phe-Asn-PyrS2-3Thi-BztA-Gln-NH2
Turning to B5, the IC50 in [1] turned out to be 40 nM.
As to Ac-[αAllylPro]D[tBuAla][B5(5)]EDAAFN[PyrS2″][Phe(2-Cl)][Bta][dT]-NH2 (staple 1-4, 4-11) [I-1030], the EC50 in test [7] was 507 nM. This molecule gave a DLD1 reporter assay Abs IC50 in test [9] above 20000 nM. Also, the IC50 was above 20000 nM with Bcat-Halo [13], above 20000 nM in the test with Bcat-Halo [10] and 507 nM in [14].
As to Ac-[αAllylPro]D[tBuAla][B5(30)]NRAAFN[PyrS2][3Thi][Bta]Q-NH2 (staple 1-4, 4-11; also: earlier-eluting HPLC isomer) [I-1892], in test [1], the IC50 amounted to 1420 nM.
In the case of Ac-[αAllylPro]D[Cha][B5(5)]DDAAFS[PyrS2][Phe(2-Cl)][Bta]S-NH2 (staple 1-4, 4-11) [I-1050], in test [7], the EC50 was 5 nM. The IC50 in test [8] was 5 nM; with Bcat-Halo [10], 24800 nM. The molecule also yielded a DLD1 reporter assay Abs IC50 in [9] of 11200 nM.

B6: I-1904 (peptide)
peptide: Ac-[αAllylPro]D[tBuAla][B5(12)]D[Phe(3-COOH)]AAFL[PyrS2(4)][Phe(2-Cl)][Bta]N-NH2
modifications: staple 1-4, 4-11; not fully specified; printed as Ac-PL3-Asp-Npg-B5-Asp-3COOHF-Ala-Ala-Phe-Leu-PyrS2-2C1F-BztA-Asn-NH2; reading uncertain
B6 yielded an IC50 in test [1] of 15 nM.
Consider [αAllylPro]D[tBuAla][B5(4)]D[Phe(3-COOH)]AAFF[PyrS2″][Phe(2-CF3)][Bta]Q-NH2 (staple 1-4, 4-11) [I-1341], for which the IC50 was 3500 nM in test [2], 3500 nM in the test with Bcat-Halo [11] and 17 nM in test [12]. The molecule further came in with a concentration for a half-maximal effect (EC50) in test [3] of 17 nM.
